B1: KLHL13 (parent)
chain: GVSKVGLRKIIDFIYTAKLSLNMD

Variants of: B1
Test: protein stability index of a GFP-peptide fusion (GPS, HEK-293T) (PSI 1-6); higher = more stable
Settings: c terminus: a fixed tail appended
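Note: lentivirally expressed fusions sorted by FACS into six bins by GFP to DsRed ratio, PSI derived from sequencing read proportions per bin multiplied by bin number.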

With GVSKVGLRKHIDFIYTAKLSLNMD as the variant, how does the protein stability index read?
The protein stability index was 1.14.

For GVSKVGLRKNIDFIYTAKLSLNMD, which protein stability index is on record?
Its protein stability index is 1.63.

Which protein stability index does the source give for GVSKVGLRKDIDFIYTAKLSLNMD here?
The protein stability index was 1.55.

Which protein stability index does the source give for GVSKVGLRKEIDFIYTAKLSLNMD here?
The protein stability index was 1.48.

Which protein stability index does the source give for GVSKVGLRKGIDFIYTAKLSLNMD here?
Its protein stability index is 2.31.

Which protein stability index does the source give for GVSKVGLRKQIDFIYTAKLSLNMD here?
Its protein stability index is 2.35.

Which protein stability index does the source give for GVSKVGLRKWIDFIYTAKLSLNMD here?
The protein stability index was 4.2.

With GVSKVGLRKYIDFIYTAKLSLNMD as the variant, how does the protein stability index read?
The protein stability index was 3.8.

Which protein stability index does the source give for GVSKVGLRKRIDFIYTAKLSLNMD here?
The protein stability index was 2.74.

For GVSKVGLRLIIDFIYTAKLSLNMD, which protein stability index is on record?
Its protein stability index is 2.37.

With GVSKVGLRSIIDFIYTAKLSLNMD as the variant, how does the protein stability index read?
The protein stability index was 2.4.

Which protein stability index does the source give for GVSKVGLRDIIDFIYTAKLSLNMD here?
The protein stability index was 3.8.

With GVSKVGLRHIIDFIYTAKLSLNMD as the variant, how does the protein stability index read?
Its protein stability index is 2.64.

Which protein stability index does the source give for GVSKVGLRIIIDFIYTAKLSLNMD here?
The protein stability index was 3.12.

Which protein stability index does the source give for GVSKVGLRAIIDFIYTAKLSLNMD here?
Its protein stability index is 4.24.

With GVSKVGLRMIIDFIYTAKLSLNMD as the variant, how does the protein stability index read?
The protein stability index was 2.42.

Which protein stability index does the source give for GVSKVGLRVIIDFIYTAKLSLNMD here?
The protein stability index was 4.21.

Which protein stability index does the source give for GVSKVGLRYIIDFIYTAKLSLNMD here?
The protein stability index was 2.81.

Which protein stability index does the source give for GVSKVGLREIIDFIYTAKLSLNMD here?
The protein stability index was 1.78.

For GVSKVGLRGIIDFIYTAKLSLNMD, which protein stability index is on record?
The protein stability index was 1.91.

With GVSKVGLRCIIDFIYTAKLSLNMD as the variant, how does the protein stability index read?
Its protein stability index is 3.38.

With GVSKVGLRNIIDFIYTAKLSLNMD as the variant, how does the protein stability index read?
Its protein stability index is 3.3.

With GVSKVGLRQIIDFIYTAKLSLNMD as the variant, how does the protein stability index read?
Its protein stability index is 2.03.

For GVSLVGLRKIIDFIYTAKLSLNMD, which protein stability index is on record?
The protein stability index was 1.93.

Which protein stability index does the source give for GVSHVGLRKIIDFIYTAKLSLNMD here?
Its protein stability index is 2.18.

Which protein stability index does the source give for GVSSVGLRKIIDFIYTAKLSLNMD here?
Its protein stability index is 2.88.

Which protein stability index does the source give for GVSCVGLRKIIDFIYTAKLSLNMD here?
Its protein stability index is 2.64.

For GVSYVGLRKIIDFIYTAKLSLNMD, which protein stability index is on record?
Its protein stability index is 1.85.

For GVSMVGLRKIIDFIYTAKLSLNMD, which protein stability index is on record?
Its protein stability index is 2.42.

With GVSRVGLRKIIDFIYTAKLSLNMD as the variant, how does the protein stability index read?
Its protein stability index is 2.95.

For GVSNVGLRKIIDFIYTAKLSLNMD, which protein stability index is on record?
The protein stability index was 2.24.

Which protein stability index does the source give for GVSTVGLRKIIDFIYTAKLSLNMD here?
Its protein stability index is 4.12.

With GVSIVGLRKIIDFIYTAKLSLNMD as the variant, how does the protein stability index read?
The protein stability index was 1.94.

With GVSAVGLRKIIDFIYTAKLSLNMD as the variant, how does the protein stability index read?
The protein stability index was 3.12.

Which protein stability index does the source give for GVSDVGLRKIIDFIYTAKLSLNMD here?
The protein stability index was 4.34.

Which protein stability index does the source give for GVSEVGLRKIIDFIYTAKLSLNMD here?
The protein stability index was 2.77.

Which protein stability index does the source give for GVSFVGLRKIIDFIYTAKLSLNMD here?
Its protein stability index is 3.29.

For GVSWVGLRKIIDFIYTAKLSLNMD, which protein stability index is on record?
Its protein stability index is 2.34.

For GVSKVGLRKIIDFIFTAKLSLNMD, which protein stability index is on record?
Its protein stability index is 3.84.

Which protein stability index does the source give for GVSKVGLRKIIDFIDTAKLSLNMD here?
Its protein stability index is 1.8.

Which protein stability index does the source give for GVSKVGLRKIIDFIGTAKLSLNMD here?
The protein stability index was 2.51.

Which protein stability index does the source give for GVSKVGLRKIIDFIATAKLSLNMD here?
The protein stability index was 3.72.

With GVSKVGLRKIIDFILTAKLSLNMD as the variant, how does the protein stability index read?
Its protein stability index is 2.07.

For GVHKVGLRKIIDFIYTAKLSLNMD, which protein stability index is on record?
The protein stability index was 3.22.

With GVMKVGLRKIIDFIYTAKLSLNMD as the variant, how does the protein stability index read?
Its protein stability index is 2.17.

For GVTKVGLRKIIDFIYTAKLSLNMD, which protein stability index is on record?
The protein stability index was 2.37.

With GVVKVGLRKIIDFIYTAKLSLNMD as the variant, how does the protein stability index read?
Its protein stability index is 4.55.

Which protein stability index does the source give for GVKKVGLRKIIDFIYTAKLSLNMD here?
The protein stability index was 2.31.

With GVGKVGLRKIIDFIYTAKLSLNMD as the variant, how does the protein stability index read?
The protein stability index was 1.62.

With GVQKVGLRKIIDFIYTAKLSLNMD as the variant, how does the protein stability index read?
The protein stability index was 2.92.

For GVYKVGLRKIIDFIYTAKLSLNMD, which protein stability index is on record?
Its protein stability index is 3.66.

Which protein stability index does the source give for GVDKVGLRKIIDFIYTAKLSLNMD here?
The protein stability index was 2.68.

Which protein stability index does the source give for GVRKVGLRKIIDFIYTAKLSLNMD here?
Its protein stability index is 2.45.

With GVWKVGLRKIIDFIYTAKLSLNMD as the variant, how does the protein stability index read?
The protein stability index was 2.47.

For GVSKVGLRKIISFIYTAKLSLNMD, which protein stability index is on record?
Its protein stability index is 3.08.

With GVSKVGLRKIIQFIYTAKLSLNMD as the variant, how does the protein stability index read?
Its protein stability index is 2.36.

With GVSKVGLRKIIMFIYTAKLSLNMD as the variant, how does the protein stability index read?
Its protein stability index is 1.62.

For GVSKVGLRKIIGFIYTAKLSLNMD, which protein stability index is on record?
The protein stability index was 3.19.

Which protein stability index does the source give for GVSKVGLRKIIIFIYTAKLSLNMD here?
Its protein stability index is 2.57.

For GVSKVGLRKIIEFIYTAKLSLNMD, which protein stability index is on record?
Its protein stability index is 2.27.

Which protein stability index does the source give for GVSKVGLRKIILFIYTAKLSLNMD here?
Its protein stability index is 2.27.

For GVSKVGLRKIITFIYTAKLSLNMD, which protein stability index is on record?
The protein stability index was 2.9.

Which protein stability index does the source give for GVSKVGLRKIIVFIYTAKLSLNMD here?
Its protein stability index is 1.94.

With GVSKVGLRKIINFIYTAKLSLNMD as the variant, how does the protein stability index read?
Its protein stability index is 1.55.

With GVSKVGLRKIIHFIYTAKLSLNMD as the variant, how does the protein stability index read?
Its protein stability index is 1.92.

With GVSKVWLRKIIDFIYTAKLSLNMD as the variant, how does the protein stability index read?
Its protein stability index is 2.32.

For GVSKVELRKIIDFIYTAKLSLNMD, which protein stability index is on record?
Its protein stability index is 1.47.

With GVSKVVLRKIIDFIYTAKLSLNMD as the variant, how does the protein stability index read?
Its protein stability index is 3.71.

For GVSKVSLRKIIDFIYTAKLSLNMD, which protein stability index is on record?
Its protein stability index is 2.08.

For GVSKVYLRKIIDFIYTAKLSLNMD, which protein stability index is on record?
Its protein stability index is 3.06.

Which protein stability index does the source give for GVSKVCLRKIIDFIYTAKLSLNMD here?
The protein stability index was 1.49.

For GVSKVRLRKIIDFIYTAKLSLNMD, which protein stability index is on record?
The protein stability index was 2.15.

Which protein stability index does the source give for GVSKVNLRKIIDFIYTAKLSLNMD here?
Its protein stability index is 2.05.

Which protein stability index does the source give for GVSKVLLRKIIDFIYTAKLSLNMD here?
The protein stability index was 4.85.

With GVSKVKLRKIIDFIYTAKLSLNMD as the variant, how does the protein stability index read?
The protein stability index was 2.84.

Which protein stability index does the source give for GVSKVPLRKIIDFIYTAKLSLNMD here?
Its protein stability index is 2.12.

With GVSKVQLRKIIDFIYTAKLSLNMD as the variant, how does the protein stability index read?
The protein stability index was 2.4.

For GVSKVHLRKIIDFIYTAKLSLNMD, which protein stability index is on record?
Its protein stability index is 3.04.

With GVSKVGLRKIIDFQYTAKLSLNMD as the variant, how does the protein stability index read?
Its protein stability index is 2.24.

With GVSKVGLRKIIDFNYTAKLSLNMD as the variant, how does the protein stability index read?
Its protein stability index is 2.15.

Which protein stability index does the source give for GVSKVGLRKIIDFVYTAKLSLNMD here?
The protein stability index was 2.43.

With GVSKVGLRKIIDFSYTAKLSLNMD as the variant, how does the protein stability index read?
Its protein stability index is 2.02.

With GVSKVGLRKIIDFPYTAKLSLNMD as the variant, how does the protein stability index read?
Its protein stability index is 2.12.

With GVSKVGLRKIIDFEYTAKLSLNMD as the variant, how does the protein stability index read?
The protein stability index was 2.31.

With GVSKVGLRKIIDFLYTAKLSLNMD as the variant, how does the protein stability index read?
Its protein stability index is 2.9.

For GVSKVGLRKIIDFWYTAKLSLNMD, which protein stability index is on record?
Its protein stability index is 3.72.

With GVSKVGLRKIIDFGYTAKLSLNMD as the variant, how does the protein stability index read?
The protein stability index was 3.7.

With GVSKVGLRKIIDFMYTAKLSLNMD as the variant, how does the protein stability index read?
Its protein stability index is 3.04.

With GVSKVGLRKIIDFHYTAKLSLNMD as the variant, how does the protein stability index read?
The protein stability index was 1.34.

For GVSKVGLRKIIDFKYTAKLSLNMD, which protein stability index is on record?
The protein stability index was 1.94.

For GVSKVGLRKIIDFYYTAKLSLNMD, which protein stability index is on record?
The protein stability index was 2.27.

Which protein stability index does the source give for GVSKVGLRKIIDFCYTAKLSLNMD here?
The protein stability index was 2.44.

With GVSKVGLRKIIDFDYTAKLSLNMD as the variant, how does the protein stability index read?
The protein stability index was 1.86.

For GVSKVGLRKIIDFAYTAKLSLNMD, which protein stability index is on record?
Its protein stability index is 2.38.

From the supplement of paper PMC10567573
